Data on one substance can be found in US20050113284A1, “Drug for regenerating tissue and vessel and method therefor” (priority 2001, published 2005).

This assay addresses mouse HGF receptor c-Met (endogenous in mouse hepatocytes and liver) (mouse) (UniProt P16056). The assay is described as follows: cell-based or functional assay.

For “full-length mouse MERMUC overexpressed in MERMUC-Tg mice (from UniProt Q8BUE7 22-656)”, the ratio of liver weight to body weight after transient overexpression of human HGF was 1.2 times.
